Data set [1] concerns the molecule itself. Briefly: dialysis to pH 4.0 and X-ray diffraction; self-assembly into crystals. From the text: SAKe's symmetry and modifiable interfaces make it an ideal building block for construction of macromolecular assemblies. […] To understand this reversible self-assembly mechanism, the crystals formed at different pH were investigated with XRD. […] At pH 8.0, His (pKa3 6.08-6.90) and Glu (pKa 4.3-4.4) are deprotonated and the net […] charge of S6BE likely causes mutual repulsion. However, at pH 4 these residues are protonated. Due to its symmetry and dipole-like character, S6BE shape and charge complementarity is then expected to allow for self-assembly into a tight hexagonal packing (FIGS. 2 and 11). A series of hydrogen bonds and hydrophobic interactions can then further stabilize the assembly. Similar mechanisms have been reported for the capsid proteins of cowpea chlorotic mosaic virus (CCMV) [Speir et al. Structure 1995, 3, 63-78; Lavelle et al. J. Phys. Chem. B 2009, 113, 3813-3819; Van Eldijk et al. J. Am. Chem. Soc. 2012, 134, 18506-18509].

Data set [2] concerns the molecule itself. Briefly: SDS PAGE, SEC, XRD; self-association.
Data set [3] concerns the molecule itself. Briefly: size exclusion chromatography, after EDTA. From the text:
(§1) FIG. 29: Size Exclusion Chromatograms for various SAKe mutants. A: S6BE-3 HR on a HiLoad Superdex 75 pg 16/600 column. B: S6BE-3CHR on a HiLoad Superdex 200 pg 16/600 column. C: S2BE-3 HR on a HiLoad Superdex 75 pg 16/600 column. D: S6BE-3 HR-L3 on a HiLoad Superdex 200 pg 16/600 column. E: mEm-v22S6BE-3 HR on a HiLoad Superdex 200 pg 16/600 column. F: dS6AC on a HiLoad Superdex 200 pg 16/600 column.
(§2) Concentrated protein samples were loaded on HiLoad Superdex 75 pg 16/600 or HiLoad Superdex 200 pg 16/600 SEC columns (Cytiva). SEC can also be used to assess biological size. All samples were run with a HEPES buffer (20 mM HEPES, pH 8.0, 200 mM NaCl). Proteins expected to interact with metals were incubated with at least 5 mM EDTA prior to SEC injection.

Data set [4] concerns the molecule itself. Briefly: size exclusion chromatography.
Source text: as §1, §2

B1: S6BE (other)
chain: MNGLIYAVGGYDGNTHLNSVEAYDPERNEWSLVAPLSTRRSGVGVAVLNGLIYAVGGYDGNTHLNSVEAYDPERNEWSLVAPLSTRRSGVGVAVLNGLIYAVGGYDGNTHLNSVEAYDPERNEWSLVAPLSTRRSGVGVAVLNGLIYAVGGYDGNTHLNSVEAYDPERNEWSLVAPLSTRRSGVGVAVLNGLIYAVGGYDGNTHLNSVEAYDPERNEWSLVAPLSTRRSGVGVAVLNGLIYAVGGYDGNTHLNSVEAYDPERNEWSLVAPLSTRRSGVGVAVL
notes: Designed six-blade B-type SAKe propeller; Expressed with an N-terminal His tag that was removed with thrombin; also called SAKe6BE; S6_6E
For the protein B1, the binding result in data set [1] was “binds”.

B2: S2BE-3HR (other)
chain: NGLIYAVGGYDGNTHLNSVEAYDPERNEWSLVAPLSTRRSGVGVAVLNGLIYAVGGYDGNTHLNSVEAYDPHRNEWSLVAPLSTRRSGVGVAVL
notes: Designed two-blade truncation of S6BE-3HR; Expressed from pET-28a with an N-terminal hexahistidine tag that was removed with thrombin
In the case of B2, the binding result in data set [2] is listed as “binds”.

B3: S6BE-3HR-L3 (other)
chain: NGLIYAVGGYDGSPDGSTHLNSVEAYDPERNEWSLVAPLSTRRSGVGVAVLNGLIYAVGGFATLETESGELVPTELNSVEAYDPHRNEWSLVAPLSTRRSGVGVAVLNGLIYAVGGYDGSPDGSTHLNSVEAYDPERNEWSLVAPLSTRRSGVGVAVLNGLIYAVGGFATLETESGELVPTELNSVEAYDPHRNEWSLVAPLSTRRSGVGVAVLNGLIYAVGGYDGSPDGSTHLNSVEAYDPERNEWSLVAPLSTRRSGVGVAVLNGLIYAVGGFATLETESGELVPTELNSVEAYDPHRNEWSLVAPLSTRRSGVGVAVL
notes: L3 loop graft on the S6BE-3HR scaffold
For the protein B3, in data set [3], the binding result is given as “no binding”.

B4: dS6AC (other)
chain: NGRIYAVGGYDGSPDGHTHLNSVEAYDPETDEWSFVAPMTTPRSGVGVAVLNGRIYAVGGYDGSPDGHTHLNSVEAYDPETDEWSFVAPMTTPRSGVGVAVLNGRIYAVGGYDGSPDGHTHLNSVEAYDPETDEWSFVAPMTTPRSGVGVAVLNGRIYAVGGYDGSPDGHTHLNSVEAYDPETDEWSFVAPMTTPRSGVGVAVLNGRIYAVGGYDGSPDGHTHLNSVEAYDPETDEWSFVAPMTTPRSGVGVAVLNGRIYAVGGYDGSPDGHTHLNSVEAYDPETDEWSFVAPMTTPRSGVGVAVLSGGRIYAVGGYDGSPDGHTHLNSVEAYDPETDEWSFVAPMTTPRSGVGVAVLNGRIYAVGGYDGSPDGHTHLNSVEAYDPETDEWSFVAPMTTPRSGVGVAVLNGRIYAVGGYDGSPDGHTHLNSVEAYDPETDEWSFVAPMTTPRSGVGVAVLNGRIYAVGGYDGSPDGHTHLNSVEAYDPETDEWSFVAPMTTPRSGVGVAVLNGRIYAVGGYDGSPDGHTHLNSVEAYDPETDEWSFVAPMTTPRSGVGVAVLNGRIYAVGGYDGSPDGHTHLNSVEAYDPETDEWSFVAPMTTPRSGVGVAVL
notes: Genetic fusion of two S6AC units via a Ser linker
In the case of B4, in data set [4], the binding result was “no binding”.

The values are drawn from patent US20240290419A1 (KATHOLIEKE UNIVERSITEIT LEUVEN, published 2024).
